Common to all, as to test: FP
One assay has as its target T1, MBP-SNX17 L470G (UniProt Q15036 1-470, L470G).
T1 sequence: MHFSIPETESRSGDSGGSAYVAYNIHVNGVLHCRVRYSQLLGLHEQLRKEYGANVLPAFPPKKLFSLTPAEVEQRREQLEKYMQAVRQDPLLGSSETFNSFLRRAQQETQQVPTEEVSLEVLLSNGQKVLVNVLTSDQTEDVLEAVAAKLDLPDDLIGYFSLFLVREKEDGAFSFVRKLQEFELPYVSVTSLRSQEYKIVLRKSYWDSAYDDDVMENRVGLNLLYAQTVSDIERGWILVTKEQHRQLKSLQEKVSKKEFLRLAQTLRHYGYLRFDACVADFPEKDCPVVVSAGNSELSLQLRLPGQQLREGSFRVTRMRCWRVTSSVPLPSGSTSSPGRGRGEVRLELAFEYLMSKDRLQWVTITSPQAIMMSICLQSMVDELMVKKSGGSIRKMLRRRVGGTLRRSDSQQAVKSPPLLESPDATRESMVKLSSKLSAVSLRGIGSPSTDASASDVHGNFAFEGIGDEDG

In assay [1] the target is T2, MBP-SNX17 (full-length, wild-type) (UniProt Q15036 1-470).
T2 chain: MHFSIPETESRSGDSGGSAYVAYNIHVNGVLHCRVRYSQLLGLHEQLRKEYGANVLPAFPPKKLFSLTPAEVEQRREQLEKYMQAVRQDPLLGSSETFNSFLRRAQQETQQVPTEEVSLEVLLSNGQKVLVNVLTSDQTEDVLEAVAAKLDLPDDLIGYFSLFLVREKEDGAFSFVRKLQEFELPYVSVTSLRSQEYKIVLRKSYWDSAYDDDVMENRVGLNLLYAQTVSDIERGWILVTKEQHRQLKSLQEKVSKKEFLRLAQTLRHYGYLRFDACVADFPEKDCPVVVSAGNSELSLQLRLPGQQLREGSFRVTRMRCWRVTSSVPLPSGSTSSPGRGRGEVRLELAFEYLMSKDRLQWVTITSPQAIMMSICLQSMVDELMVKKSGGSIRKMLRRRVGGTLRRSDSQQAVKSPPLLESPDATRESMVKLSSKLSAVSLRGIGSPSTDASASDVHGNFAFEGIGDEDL

The target in another assay is T3, MBP-SNX17 D467X (UniProt Q15036 1-466).
T3 chain: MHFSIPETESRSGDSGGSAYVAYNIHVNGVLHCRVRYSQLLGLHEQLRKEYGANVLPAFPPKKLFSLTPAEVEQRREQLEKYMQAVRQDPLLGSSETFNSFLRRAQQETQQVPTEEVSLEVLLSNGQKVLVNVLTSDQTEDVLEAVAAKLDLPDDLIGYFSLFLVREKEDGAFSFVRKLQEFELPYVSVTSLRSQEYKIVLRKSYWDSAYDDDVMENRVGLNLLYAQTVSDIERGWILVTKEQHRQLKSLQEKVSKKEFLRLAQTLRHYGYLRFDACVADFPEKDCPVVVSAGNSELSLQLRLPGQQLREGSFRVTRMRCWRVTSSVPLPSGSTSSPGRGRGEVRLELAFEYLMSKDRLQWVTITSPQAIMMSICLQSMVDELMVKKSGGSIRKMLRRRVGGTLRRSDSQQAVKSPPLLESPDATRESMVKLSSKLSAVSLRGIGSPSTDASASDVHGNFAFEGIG

Where no end group is shown, it is not given here. The star is where a group is joined. 5FAM = O=C1OC2(c3ccc(O)cc3Oc3cc(O)ccc32)c2ccc(C(=O)*)cc21

These results are taken from article PMC11772769 (2024).

In the case of 5FAM-MNVEIGNPTYKMYE [Peptide LRP1_(14mer)], the values for the equilibrium dissociation constant (Kd) (in the assay with MBP-SNX17 L470G; in assay [1]; in the assay with MBP-SNX17 D467X) were 2800 nM, 3000 nM and 8500 nM, respectively.
The like results for 5FAM-KLITYDNPAYEGID [Peptide L2_(14mer)] were, in that order, 1100 nM, 1100 nM and 3200 nM.
